± gives the standard deviation.
Assay: protein stability index of a GFP-peptide fusion (GPS, HEK-293T) (PSI 1-6); higher = more stable
[1] = treatment: DMSO, c terminus: a fixed tail appended
[2] = treatment: MLN4924 1 uM, 8 h, c terminus: a fixed tail appended
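Note: 24-mer peptide tiles fused after GFP, lentivirally expressed, FACS-sorted into six equal bins by GFP/DsRed ratio, decoded by Illumina sequencing, PSI is the read-weighted mean bin number.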

QQLLHHARNGNAEEVRQLLETMAR [OSBPL1A]
protein stability index [1]: 3.15 ± 0.38 | protein stability index [2]: 3.78 ± 0.3

LIYTLKNAEMKSAMRKLWSKKVSL [OR4A15]
protein stability index [1]: 2.41 ± 0.97 | protein stability index [2]: 2.04 ± 0.12

RGRAREREQLQAEASERFAAGYIQ [HES6]
protein stability index [1]: 4.58 ± 0.2 | protein stability index [2]: 4.57 ± 0.1

ARLLGALAARSGAAYGPGARGEDR [TSPAN10]
protein stability index [1]: 3.89 ± 0.73 | protein stability index [2]: 3.91 ± 0.18

QPPPQEEPGTPSSSPDDKLLTSPR [KLHL14]
protein stability index [1]: 5.52 ± 0.16 | protein stability index [2]: 5.48 ± 0.15

GEGTFGKVVECLDHARGKSQVALK [CLK3]
protein stability index [1]: 4.45 ± 0.33 | protein stability index [2]: 4.66 ± 0.082

NISHTKEKKKGKAKKKRLTKADIG [WASL]
protein stability index [1]: 4.78 ± 0.23 | protein stability index [2]: 4.81 ± 0.26

AREELMESRMRIESLSSQLSNLQK [LMNB1]
protein stability index [1]: 3.95 ± 0.18 | protein stability index [2]: 4.07 ± 0.19

VAEKVVVITKHNDDEQYAWESSAG [HSP90AB1]
protein stability index [1]: 4.53 ± 0.11 | protein stability index [2]: 4.34 ± 0.29

EHPNVVRLMDVCATSRTDREIKVT [CDK4]
protein stability index [1]: 3.93 ± 0.36 | protein stability index [2]: 4.14 ± 0.38

STVTPVPGQEKGSALEGRADTTTG [EHMT1]
protein stability index [1]: 5.51 ± 0.32 | protein stability index [2]: 5.53 ± 0.24

KISGGPRISYPLLHEWALREGEE [MAGEA6]
protein stability index (treatment: DMSO, c terminus: native): 2.68 ± 0.52 | protein stability index (treatment: MLN4924 1 uM, 8 h, c terminus: native): 3.02 ± 0.65

FQGQKTELNNCISMLVAGNDRVQT [TRIM63]
protein stability index [1]: 3.13 ± 0.15 | protein stability index [2]: 3.41 ± 0.42

LIKEGGMPLLRDIIKMATARQETK [ZER1]
protein stability index [1]: 2.69 ± 0.32 | protein stability index [2]: 2.65 ± 0.38

YKDRQKFSEQVFKVASSDLVNMGI [FLOT1]
protein stability index [1]: 2.52 ± 0.24 | protein stability index [2]: 2.77 ± 0.29

SHWDLNHTHPSACQGQRLFEKLLQ [PLD5]
protein stability index [1]: 2.56 ± 0.43 | protein stability index [2]: 2.54 ± 0.3

KFSPDGKYVVSGFDVDHGICIMDA [WDR88]
protein stability index [1]: 2.69 ± 0.21 | protein stability index [2]: 3.13 ± 0.49

MDLMVEVSPRRIFANGHTYHINSI [PPP2R2C]
protein stability index [1]: 2.91 ± 0.41 | protein stability index [2]: 2.8 ± 0.6

RLVLDAALALQARGCSVKIWTAHY [ALG2]
protein stability index [1]: 2.87 ± 0.68 | protein stability index [2]: 2.69 ± 0.72

LQRVPSYDSFDSEDYPAALPNHKP [ETS1]
protein stability index [1]: 4.45 ± 0.18 | protein stability index [2]: 4.53 ± 0.17

MAAADAEAVPARGEPQQDCCVKTE [EHMT1]
protein stability index [1]: 5.63 ± 0.21 | protein stability index [2]: 5.53 ± 0.11

PISPSTEVGGSGIGTPPSVLKRQR [MYBL2]
protein stability index [1]: 5.36 ± 0.24 | protein stability index [2]: 4.97 ± 0.36

TPPLKNVRKKRFRKTQKKVPDVKE [TAF7L]
protein stability index [1]: 4.84 ± 0.37 | protein stability index [2]: 4.73 ± 0.22

SGESNSAVSTEDLKECLKKQLEFC [LARP4]
protein stability index [1]: 4.43 ± 0.49 | protein stability index [2]: 4.64 ± 0.19

GVEPAPWAQLEAPARLLLQALQAG [FANCE]
protein stability index [1]: 2.89 ± 0.27 | protein stability index [2]: 2.92 ± 0.38

KFLASHFPNRTDQQCQYRWLRVLN [MYBL2]
protein stability index [1]: 2.19 ± 0.46 | protein stability index [2]: 2.2 ± 0.29

PFTVYQVRWLRPVHRQLGEANEEF [AUP1]
protein stability index [1]: 2.43 ± 0.34 | protein stability index [2]: 2.33 ± 0.32

KWDAENAIQQMGGQWLGGRQIRTN [TIA1]
protein stability index [1]: 3.51 ± 0.28 | protein stability index [2]: 3.56 ± 0.3

VIHRALDREQVSSYNITVTATDGG [PCDHGA10]
protein stability index [1]: 3.27 ± 0.23 | protein stability index [2]: 3.14 ± 0.28

RPLRSREFPQFEPQRYPACAQMLP [TRAF3IP2]
protein stability index [1]: 3.07 ± 0.44 | protein stability index [2]: 3.44 ± 0.15

TPMRVALAGTFHYYSCERAKKAMG [NSDHL]
protein stability index [1]: 2.48 ± 0.5 | protein stability index [2]: 2.38 ± 0.16

YAFANVFHGWKYMFGLVIPLGVLQ [SLC2A12]
protein stability index [1]: 3.19 ± 0.62 | protein stability index [2]: 3.11 ± 0.52

VRSTETVERDNMEEDNVEESEEEG [HDAC6]
protein stability index [1]: 5.57 ± 0.45 | protein stability index [2]: 5.72 ± 0.24

YEIPHFRLKKVENIKIWLSLRSYL [PHTF1]
protein stability index [1]: 2.8 ± 1 | protein stability index [2]: 2.92 ± 0.9

TAAGLMHTFNAHAATDITGFGILG [SEPHS2]
protein stability index [1]: 2.43 ± 0.51 | protein stability index [2]: 2.44 ± 0.074

MKDRLAELLDLSKQYDQQFPDGDD [STX11]
protein stability index [1]: 4.77 ± 0.33 | protein stability index [2]: 4.89 ± 0.15

DTSKQKKMETMYPFIVTLEGNALQ [ZNF449]
protein stability index [1]: 3.12 ± 0.34 | protein stability index [2]: 2.85 ± 0.12

IVWNKKGKKVSNQRFEVIEFDDGS [PTPRD]
protein stability index [1]: 3.31 ± 0.18 | protein stability index [2]: 3.15 ± 0.062

SEGSSSSSSSSSSSSSSASSSASS [NFE2L1]
protein stability index [1]: 5.57 ± 0.16 | protein stability index [2]: 5.53 ± 0.2

VPETIHDELQQSFQKSHNSLQRWE [PRIM1]
protein stability index [1]: 3.88 ± 0.16 | protein stability index [2]: 3.75 ± 0.24

GELRSKSGHKLYIFLFQDILVLTR [NET1]
protein stability index [1]: 2.5 ± 0.66 | protein stability index [2]: 1.75 ± 0.27

RSLQRGCRALRDPALDSLAYEYER [TRADD]
protein stability index [1]: 3.13 ± 0.059 | protein stability index [2]: 3.47 ± 0.32

EEEPGVRNGMASEGLNSSLCSPGH [PSD2]
protein stability index [1]: 5.1 ± 0.23 | protein stability index [2]: 5.26 ± 0.13

AKAQVRKAVQYEEKNPCRTLCCFC [STX11]
protein stability index [1]: 2.97 ± 0.24 | protein stability index [2]: 3.36 ± 0.54

RTIAETEAAYLKILESSQTLLSVL [SSNA1]
protein stability index [1]: 2.33 ± 0.29 | protein stability index [2]: 2.72 ± 0.27

SDFQIEPGFYATYESTLFEDQVPA [MIA2]
protein stability index [1]: 3.92 ± 0.27 | protein stability index [2]: 3.7 ± 0.31

EDTSNDESSILGTDIDLQTIDNDI [M1AP]
protein stability index [1]: 5.56 ± 0.093 | protein stability index [2]: 5.56 ± 0.18

IRQVLQGLDYLHSKCKIIHTDIKP [SRPK2]
protein stability index [1]: 2.35 ± 0.44 | protein stability index [2]: 2.22 ± 0.23

ADESVLWQLFGPFGAVTNVKVIRD [ELAVL3]
protein stability index [1]: 2.23 ± 0.18 | protein stability index [2]: 2.35 ± 0.33

EPPKPTFPAYTQSTASTTSTTNST [ZNF207]
protein stability index [1]: 5.39 ± 0.3 | protein stability index [2]: 5.04 ± 0.21

RSPYAGLQLGAAKKPPVTFAEKGE [TRIM29]
protein stability index [1]: 4.09 ± 0.22 | protein stability index [2]: 4.26 ± 0.2

FEGFQAVSLKQEGDDQPSETDHLS [TPRG1]
protein stability index [1]: 5.51 ± 0.17 | protein stability index [2]: 5.54 ± 0.23

EEEGGEEEEEAAMYEEEMEREEIT [FAM50A]
protein stability index [1]: 5.6 ± 0.13 | protein stability index [2]: 5.71 ± 0.11

FGGQDENKQTLSSGEKYDPDANTW [GAN]
protein stability index [1]: 5.06 ± 0.074 | protein stability index [2]: 5.01 ± 0.35

VKVVLIPVGQEIVIPFKVDTILKY [IQUB]
protein stability index [1]: 3.98 ± 0.88 | protein stability index [2]: 2.5 ± 0.79

DEPTFKVLLKTADPRYELPSRKYI [ZBED1]
protein stability index [1]: 2.81 ± 0.26 | protein stability index [2]: 3.19 ± 0.4

GARAALNEIESRHRELLRLESRIR [STX11]
protein stability index [1]: 3.46 ± 0.26 | protein stability index [2]: 3.72 ± 0.35

VFKQAKDKVSDGVTKSPEKRSSLP [MAP2]
protein stability index [1]: 4.92 ± 0.16 | protein stability index [2]: 4.93 ± 0.099

SVTGHTNIVEYLIQEQPGQEQVAG [FEM1A]
protein stability index [1]: 4.45 ± 0.073 | protein stability index [2]: 4.57 ± 0.17

RFTRTPVDQTGVSGGVASFICQAT [PTPRD]
protein stability index [1]: 3.12 ± 0.28 | protein stability index [2]: 3.19 ± 0.37

NLEKQLICPICLEMFTKPVVILPC [TRIM55]
protein stability index [1]: 2.41 ± 0.34 | protein stability index [2]: 2.33 ± 0.22

FCIDSENRIGNSGVEEIKGHPFFE [STK38L]
protein stability index [1]: 2.97 ± 0.58 | protein stability index [2]: 3.03 ± 0.18

PGTGKTSLCKALAQKLTIRLSSRY [TRIP13]
protein stability index [1]: 2.92 ± 0.64 | protein stability index [2]: 2.63 ± 0.65

NNYRLGGNPSTNSRVTASSGITIP [SMARCE1]
protein stability index [1]: 3.64 ± 0.3 | protein stability index [2]: 3.54 ± 0.38

VRLLLEFKAEVDPLSDKGTTPLQL [ASB7]
protein stability index [1]: 2.16 ± 0.48 | protein stability index [2]: 2.31 ± 0.4

Reference: the supplement of paper PMC10567573
